Laboratory results as given in the supplement of paper PMC10567573.

B1: BEX1 (parent)
chain: EENMERIGEEVRQLMEKLREKQLS
B2: PBXIP1 (parent)
chain: EKQKQPRWREGTKDSHDPLPSWAE

Variants of: B1
Assay: protein stability index of a GFP-peptide fusion (GPS, HEK-293T) (PSI 1-6); higher = more stable
Conditions: c terminus: a fixed tail appended
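Also: lentivirally expressed fusions sorted by FACS into six bins by GFP to DsRed ratio, PSI derived from sequencing read proportions per bin multiplied by bin number.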

**Q.** Which protein stability index does the source give for EENMERIGEEVRQLMNKLREKQLS [E16N] here?
**A.** 4.45

**Q.** For EENMERIGEEVRQLMPKLREKQLS [E16P], which protein stability index is on record?
**A.** 2.69

**Q.** Which protein stability index does the source give for EENMERIGEEVRQLMVKLREKQLS [E16V] here?
**A.** 3.31

**Q.** For EENMERIGEEVRQLMRKLREKQLS [E16R], which protein stability index is on record?
**A.** 3.89

**Q.** Which protein stability index does the source give for EENMERIGEEVRQLMCKLREKQLS [E16C] here?
**A.** 3.87

**Q.** With EENMERIGEEVRQLMEKLREDQLS [K21D] as the variant, how does the protein stability index read?
**A.** 4.97

**Q.** Which protein stability index does the source give for EENMERIGEEVRQLMEKLREFQLS [K21F] here?
**A.** 4.64

**Q.** Which protein stability index does the source give for EENMERIGEEVRQLMEKLREWQLS [K21W] here?
**A.** 4.07

**Q.** Which protein stability index does the source give for EENMERIGEEVRQLMEKLREEQLS [K21E] here?
**A.** 3.26

**Q.** Which protein stability index does the source give for EENMERIGEEVRQLMEKLRECQLS [K21C] here?
**A.** 1.67

**Q.** For EENMERIGEEVRQLMEKLREIQLS [K21I], which protein stability index is on record?
**A.** 3.7

**Q.** Which protein stability index does the source give for EENMERIGEEVRQLMEKLRESQLS [K21S] here?
**A.** 4.25

**Q.** Which protein stability index does the source give for EENMERIGEEVRQLMEKLRETQLS [K21T] here?
**A.** 5.02

**Q.** With EENMERIGEEVRQLMEKLREAQLS [K21A] as the variant, how does the protein stability index read?
**A.** 4.11

**Q.** Which protein stability index does the source give for EENMERIGEEVRQLMEKLREQQLS [K21Q] here?
**A.** 4.53

**Q.** Which protein stability index does the source give for EENMERIGEEVRQLMEKLREYQLS [K21Y] here?
**A.** 3.04

**Q.** For EENMERIGEEVRQLMEKLREHQLS [K21H], which protein stability index is on record?
**A.** 3.15

**Q.** With EENMERIGEEVRQLMEKLRENQLS [K21N] as the variant, how does the protein stability index read?
**A.** 4.61

**Q.** For EENMERIGEEVSQLMEKLREKQLS [R12S], which protein stability index is on record?
**A.** 4.85

**Q.** Which protein stability index does the source give for EENMERIGEEVNQLMEKLREKQLS [R12N] here?
**A.** 4.1

**Q.** For EENMERIGEEVFQLMEKLREKQLS [R12F], which protein stability index is on record?
**A.** 4.12

**Q.** For EENMERIGEEVHQLMEKLREKQLS [R12H], which protein stability index is on record?
**A.** 5.45

**Q.** Which protein stability index does the source give for EENMERIGEEVCQLMEKLREKQLS [R12C] here?
**A.** 4.43

**Q.** For EENMERIGEEVPQLMEKLREKQLS [R12P], which protein stability index is on record?
**A.** 5.1

**Q.** For EENMERIGEEVMQLMEKLREKQLS [R12M], which protein stability index is on record?
**A.** 4.62

**Q.** With EENMERIGEEVIQLMEKLREKQLS [R12I] as the variant, how does the protein stability index read?
**A.** 4.22

**Q.** For EENMERIGEEVLQLMEKLREKQLS [R12L], which protein stability index is on record?
**A.** 3.77

**Q.** With EENMERIGEEVKQLMEKLREKQLS [R12K] as the variant, how does the protein stability index read?
**A.** 4.78

**Q.** For EENMERIGEEVVQLMEKLREKQLS [R12V], which protein stability index is on record?
**A.** 5.27

**Q.** For EENMERIGEEDRQLMEKLREKQLS [V11D], which protein stability index is on record?
**A.** 5.92

**Q.** Which protein stability index does the source give for EENMERIGEELRQLMEKLREKQLS [V11L] here?
**A.** 4.68

**Q.** For EENMERIGEEKRQLMEKLREKQLS [V11K], which protein stability index is on record?
**A.** 5.09

**Q.** Which protein stability index does the source give for EENMERIGEECRQLMEKLREKQLS [V11C] here?
**A.** 4.19

**Q.** Which protein stability index does the source give for EENMERIGEEGRQLMEKLREKQLS [V11G] here?
**A.** 5.64

**Q.** For EENMERIGEESRQLMEKLREKQLS [V11S], which protein stability index is on record?
**A.** 3.41

**Q.** With EENMERIGEEHRQLMEKLREKQLS [V11H] as the variant, how does the protein stability index read?
**A.** 5.86

**Q.** With EENMERIGEEFRQLMEKLREKQLS [V11F] as the variant, how does the protein stability index read?
**A.** 4.25

**Q.** With EENMERIGEETRQLMEKLREKQLS [V11T] as the variant, how does the protein stability index read?
**A.** 4.5

**Q.** With EENMERIGEENRQLMEKLREKQLS [V11N] as the variant, how does the protein stability index read?
**A.** 5.46

**Q.** For EENMERIGEEPRQLMEKLREKQLS [V11P], which protein stability index is on record?
**A.** 5.37

**Q.** With EENMERIGEEMRQLMEKLREKQLS [V11M] as the variant, how does the protein stability index read?
**A.** 4.63

**Q.** Which protein stability index does the source give for EENMERIGEERRQLMEKLREKQLS [V11R] here?
**A.** 5.38

**Q.** With EENMERIGEEVRQLMEKLNEKQLS [R19N] as the variant, how does the protein stability index read?
**A.** 5.13

**Q.** With EENMERIGEEVRQLMEKLEEKQLS [R19E] as the variant, how does the protein stability index read?
**A.** 5.31

**Q.** With EENMERIGEEVRQLMEKLSEKQLS [R19S] as the variant, how does the protein stability index read?
**A.** 4.21

**Q.** Which protein stability index does the source give for EENMERIGEEVRQLMEKLAEKQLS [R19A] here?
**A.** 4.72

**Q.** For EENMERIGEEVRQLMEKLKEKQLS [R19K], which protein stability index is on record?
**A.** 4.74

**Q.** Which protein stability index does the source give for EENMERIGEEVRQLMEKLPEKQLS [R19P] here?
**A.** 5.54

**Q.** Which protein stability index does the source give for EENMERIGEEVRQLMEKLFEKQLS [R19F] here?
**A.** 3.95

**Q.** For EENMERIGEEVRQLMEKLTEKQLS [R19T], which protein stability index is on record?
**A.** 4.76

**Q.** Which protein stability index does the source give for EENMERIGEEVRQLMEKLLEKQLS [R19L] here?
**A.** 2.82

**Q.** For EENMERIGEEVRQLMEKLYEKQLS [R19Y], which protein stability index is on record?
**A.** 3.92

**Q.** For EENMERIGEEVRQLMEKLHEKQLS [R19H], which protein stability index is on record?
**A.** 5.32

**Q.** Which protein stability index does the source give for EENMERIGEMVRQLMEKLREKQLS [E10M] here?
**A.** 3.51

**Q.** For EENMERIGERVRQLMEKLREKQLS [E10R], which protein stability index is on record?
**A.** 2.79

**Q.** Which protein stability index does the source give for EENMERIGEDVRQLMEKLREKQLS [E10D] here?
**A.** 4.76

**Q.** With EENMERIGEFVRQLMEKLREKQLS [E10F] as the variant, how does the protein stability index read?
**A.** 2.91

**Q.** Which protein stability index does the source give for EENMERIGEAVRQLMEKLREKQLS [E10A] here?
**A.** 3.09

**Q.** For EENMERIGEGVRQLMEKLREKQLS [E10G], which protein stability index is on record?
**A.** 4.24

**Q.** Which protein stability index does the source give for EENMERIGEHVRQLMEKLREKQLS [E10H] here?
**A.** 4

**Q.** With EENMERIGEKVRQLMEKLREKQLS [E10K] as the variant, how does the protein stability index read?
**A.** 3.89

**Q.** For EENMERIGESVRQLMEKLREKQLS [E10S], which protein stability index is on record?
**A.** 4.31

**Q.** Which protein stability index does the source give for EENMERIGEYVRQLMEKLREKQLS [E10Y] here?
**A.** 4.13

**Q.** For EENMERIGELVRQLMEKLREKQLS [E10L], which protein stability index is on record?
**A.** 4.63

**Q.** Which protein stability index does the source give for EENMERIGETVRQLMEKLREKQLS [E10T] here?
**A.** 3.96

**Q.** For EENMERIGEWVRQLMEKLREKQLS [E10W], which protein stability index is on record?
**A.** 3.67

**Q.** With EENMERIGEPVRQLMEKLREKQLS [E10P] as the variant, how does the protein stability index read?
**A.** 4.75

**Q.** For EENMERIGEEVRQLMEKLREKQLM [S24M], which protein stability index is on record?
**A.** 4.43

**Q.** With EENMERIGEEVRQLMEKLREKQLT [S24T] as the variant, how does the protein stability index read?
**A.** 4.29

**Q.** With EENMERIGEEVRQLMEKLREKQLF [S24F] as the variant, how does the protein stability index read?
**A.** 4.32

**Q.** Which protein stability index does the source give for EENMERIGEEVRQLMEKLREKQLW [S24W] here?
**A.** 3.99

**Q.** With EENMERIGEEVRQLMEKLREKQLC [S24C] as the variant, how does the protein stability index read?
**A.** 4.8

**Q.** With EENMERIGEEVRQLMEKLREKQLK [S24K] as the variant, how does the protein stability index read?
**A.** 3.54

**Q.** With EENMERIGEEVRQLMEKLREKQLV [S24V] as the variant, how does the protein stability index read?
**A.** 4.67

**Q.** For EENMERIGEEVRQLMEKLREKQLD [S24D], which protein stability index is on record?
**A.** 4.91

**Q.** Which protein stability index does the source give for EENMERIGEEVRQLMEKLREKQLL [S24L] here?
**A.** 4.21

**Q.** For EENMERIGEEVRQLMEKLREKQLI [S24I], which protein stability index is on record?
**A.** 3.97

**Q.** With EENMERIGEEVRQLMEKLREKQLQ [S24Q] as the variant, how does the protein stability index read?
**A.** 4.95

**Q.** For EENMERIGEEVRQLMEKLREKQLY [S24Y], which protein stability index is on record?
**A.** 3.91

**Q.** Which protein stability index does the source give for EENMERIGEEVRQLMEKLREKQLG [S24G] here?
**A.** 4.78

**Q.** For EENMERIGEEVRQLMEGLREKQLS [K17G], which protein stability index is on record?
**A.** 4.86

**Q.** With EENMERIGEEVRQLMEQLREKQLS [K17Q] as the variant, how does the protein stability index read?
**A.** 4.38

**Q.** With EENMERIGEEVRQLMEDLREKQLS [K17D] as the variant, how does the protein stability index read?
**A.** 4.76

**Q.** With EENMERIGEEVRQLMEWLREKQLS [K17W] as the variant, how does the protein stability index read?
**A.** 4.17

**Q.** For EENMERIGEEVRQLMEILREKQLS [K17I], which protein stability index is on record?
**A.** 3.76

Variants of: B2
Assay: as above
Conditions: c terminus: a fixed tail appended

**Q.** For FKQKQPRWREGTKDSHDPLPSWAE [E1F], which protein stability index is on record?
**A.** 1.4

**Q.** For GKQKQPRWREGTKDSHDPLPSWAE [E1G], which protein stability index is on record?
**A.** 1.66

**Q.** With MKQKQPRWREGTKDSHDPLPSWAE [E1M] as the variant, how does the protein stability index read?
**A.** 1.7

**Q.** For CKQKQPRWREGTKDSHDPLPSWAE [E1C], which protein stability index is on record?
**A.** 2.08

**Q.** With IKQKQPRWREGTKDSHDPLPSWAE [E1I] as the variant, how does the protein stability index read?
**A.** 2.16

**Q.** Which protein stability index does the source give for LKQKQPRWREGTKDSHDPLPSWAE [E1L] here?
**A.** 2.19

**Q.** With KKQKQPRWREGTKDSHDPLPSWAE [E1K] as the variant, how does the protein stability index read?
**A.** 2.33

**Q.** For HKQKQPRWREGTKDSHDPLPSWAE [E1H], which protein stability index is on record?
**A.** 2.64

**Q.** Which protein stability index does the source give for AKQKQPRWREGTKDSHDPLPSWAE [E1A] here?
**A.** 2.67
